Measured values from PMC7102968.
pKd: −log10 of the molar value.

Molecular target: TetR-Y42A Y42A;C68S;C88N;C121T;C144S;internal_change (UniProt P04483)
Experiment: ITC
Details: ITC: 20 mM potassium phosphate pH 7.4, 50 mM NaCl, 25 C; EMSA: 50 mM Tris-HCl pH 8.0, 10 mM MgCl2, 25 mM NaCl, 25 ug/ml yeast tRNA, room temperature; SEC …

GGCCGGAGAAUGUUAUGGCGCGAAAGCGCAGAGAAAACCGGUC [TetR-binding aptamer K1]
pKd: 4.86
